Measurements reported in US20080108793.

Test system: crotonyl-ACP

With “N-terminal His-tagged F. tularensis FabI” the Km (crotonyl-ACP) was 4.4 µM.
